Laboratory results from the supplement of paper PMC11316812.
± gives the standard deviation of the averaged measurements.

Tests used:
MCF7 = test: percentage of EdU-negative (G0-arrested) nuclei per well, 72 h; higher = more G0 arrest; details: reference: sequence is the full UniProt precursor, the tested protein was the secreted form or ectodomain
hTERT-HMEC = test: as above; details: reference: sequence is the full UniProt precursor, the tested protein was the secreted form or ectodomain
[1] = protein concentration 0.00975 µM
[2] = protein concentration 0.0975 µM
[3] = protein concentration 0.028295 µM
[4] = protein concentration 0.28295 µM
[5] = protein concentration 0.0225 µM
[6] = protein concentration 0.03125 µM
[7] = protein concentration 0.3125 µM
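Further: secreted proteins added to cultured cells, EdU pulse at the end, nuclei found by Hoechst imaging, EdU status from nuclear versus surrounding ring intensity ratio, PBS as neutral control.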

Sequence | percentage of EdU-negative (MCF7; [5]) [%] | percentage of EdU-negative (MCF7; protein concentration 0.225 µM) [%] | percentage of EdU-negative (hTERT-HMEC; [5]) [%] | percentage of EdU-negative (hTERT-HMEC; protein concentration 0.225 µM) [%] | further results
MPGPRRPAGSRLRLLLLLLLPPLLLLLRGSHAGNLTVAVVLPLANTSYPWSWARVGPAVELALAQVKARPDLLPGWTVRTVLGSSENALGVCSDTAAPLAAVDLKWEHNPAVFLGPGCVYAAAPVGRFTAHWRVPLLTAGAPALGFGVKDEYALTTRAGPSYAKLGDFVAALHRRLGWERQALMLYAYRPGDEEHCFFLVEGLFMRVRDRLNITVDHLEFAEDDLSHYTRLLRTMPRKGRVIYICSSPDAFRTLMLLALEAGLCGEDYVFFHLDIFGQSLQGGQGPAPRRPWERGDGQDVSARQAFQAAKIITYKDPDNPEYLEFLKQLKHLAYEQFNFTMEDGLVNTIPASFHDGLLLYIQAVTETLAHGGTVTDGENITQRMWNRSFQGVTGYLKIDSSGDRETDFSLWDMDPENGAFRVVLNYNGTSQELVAVSGRKLNWPLGYPPPDIPKCGFDNEDPACNQDHLSTLEVLALVGSLSLLGILIVSFFIYRKMQLEKELASELWRVRWEDVEPSSLERHLRSAGSRLTLSGRGSNYGSLLTTEGQFQVFAKTAYYKGNLVAVKRVNRKRIELTRKVLFELKHMRDVQNEHLTRFVGACTDPPNICILTEYCPRGSLQDILENESITLDWMFRYSLTNDIVKGMLFLHNGAICSHGNLKSSNCVVDGRFVLKITDYGLESFRDLDPEQGHTVYAKKLWTAPELLRMASPPVRGSQAGDVYSFGIILQEIALRSGVFHVEGLDLSPKEIIERVTRGEQPPFRPSLALQSHLEELGLLMQRCWAEDPQERPPFQQIRLTLRKFNRENSSNILDNLLSRMEQYANNLEELVEERTQAYLEEKRKAEALLYQILPHSVAEQLKRGETVQAEAFDSVTIYFSDIVGFTALSAESTPMQVVTLLNDLYTCFDAVIDNFDVYKVETIGDAYMVVSGLPVRNGRLHACEVARMALALLDAVRSFRIRHRPQEQLRLRIGIHTGPVCAGVVGLKMPRYCLFGDTVNTASRMESNGEALKIHLSSETKAVLEEFGGFELELRGDVEMKGKGKVRTYWLLGERGSSTRG | – | – | – | – | percentage of EdU-negative (MCF7; [1]): 23.4 ± 0.38%; percentage of EdU-negative (MCF7; [2]): 29.51 ± 0.041%; percentage of EdU-negative (hTERT-HMEC; [1]): 4.49 ± 0.51%; percentage of EdU-negative (hTERT-HMEC; [2]): 7.62 ± 0.42%
MAPPQVLAFGLLLAAATATFAAAQEECVCENYKLAVNCFVNNNRQCQCTSVGAQNTVICSKLAAKCLVMKAEMNGSKLGRRAKPEGALQNNDGLYDPDCDESGLFKAKQCNGTSMCWCVNTAGVRRTDKDTEITCSERVRTYWIIIELKHKAREKPYDSKSLRTALQKEITTRYQLDPKFITSILYENNVITIDLVQNSSQKTQNDVDIADVAYYFEKDVKGESLFHSKKMDLTVNGEQLDLDPGQTLIYYVDEKAPEFSMQGLKAGVIAVIVVVVIAVVAGIVVLVISRKKRMAKYEKAEIKEMGEMHRELNA | – | – | – | – | percentage of EdU-negative (MCF7; [3]): 26.6 ± 1.3%; percentage of EdU-negative (MCF7; [4]): 26.1 ± 0.38%; percentage of EdU-negative (hTERT-HMEC; [3]): 4.24 ± 0.27%; percentage of EdU-negative (hTERT-HMEC; [4]): 7.81 ± 1.4%
MKPAAREARLPPRSPGLRWALPLLLLLLRLGQILCAGGTPSPIPDPSVATVATGENGITQISSTAESFHKQNGTGTPQVETNTSEDGESSGANDSLRTPEQGSNGTDGASQKTPSSTGPSPVFDIKAVSISPTNVILTWKSNDTAASEYKYVVKHKMENEKTITVVHQPWCNITGLRPATSYVFSITPGIGNETWGDPRVIKVITEPIPVSDLRVALTGVRKAALSWSNGNGTASCRVLLESIGSHEELTQDSRLQVNISGLKPGVQYNINPYLLQSNKTKGDPLGTEGGLDASNTERSRAGSPTAPVHDESLVGPVDPSSGQQSRDTEVLLVGLEPGTRYNATVYSQAANGTEGQPQAIEFRTNAIQVFDVTAVNISATSLTLIWKVSDNESSSNYTYKIHVAGETDSSNLNVSEPRAVIPGLRSSTFYNITVCPVLGDIEGTPGFLQVHTPPVPVSDFRVTVVSTTEIGLAWSSHDAESFQMHITQEGAGNSRVEITTNQSIIIGGLFPGTKYCFEIVPKGPNGTEGASRTVCNRTVPSAVFDIHVVYVTTTEMWLDWKSPDGASEYVYHLVIESKHGSNHTSTYDKAITLQGLIPGTLYNITISPEVDHVWGDPNSTAQYTRPSNVSNIDVSTNTTAATLSWQNFDDASPTYSYCLLIEKAGNSSNATQVVTDIGITDATVTELIPGSSYTVEIFAQVGDGIKSLEPGRKSFCTDPASMASFDCEVVPKEPALVLKWTCPPGANAGFELEVSSGAWNNATHLESCSSENGTEYRTEVTYLNFSTSYNISITTVSCGKMAAPTRNTCTTGITDPPPPDGSPNITSVSHNSVKVKFSGFEASHGPIKAYAVILTTGEAGHPSADVLKYTYEDFKKGASDTYVTYLIRTEEKGRSQSLSEVLKYEIDVGNESTTLGYYNGKLEPLGSYRACVAGFTNITFHPQNKGLIDGAESYVSFSRYSDAVSLPQDPGVICGAVFGCIFGALVIVTVGGFIFWRKKRKDAKNNEVSFSQIKPKKSKLIRVENFEAYFKKQQADSNCGFAEEYEDLKLVGISQPKYAAELAENRGKNRYNNVLPYDISRVKLSVQTHSTDDYINANYMPGYHSKKDFIATQGPLPNTLKDFWRMVWEKNVYAIIMLTKCVEQGRTKCEEYWPSKQAQDYGDITVAMTSEIVLPEWTIRDFTVKNIQTSESHPLRQFHFTSWPDHGVPDTTDLLINFRYLVRDYMKQSPPESPILVHCSAGVGRTGTFIAIDRLIYQIENENTVDVYGIVYDLRMHRPLMVQTEDQYVFLNQCVLDIVRSQKDSKVDLIYQNTTAMTIYENLAPVTTFGKTNGYIA | 23.2 ± 1.6 | 22.4 ± 0.63 | 5.56 ± 1.9 | 5.79 ± 0.53 | –
MESPSAPPHRWCIPWQRLLLTASLLTFWNPPTTAKLTIESTPFNVAEGKEVLLLVHNLPQHLFGYSWYKGERVDGNRQIIGYVIGTQQATPGPAYSGREIIYPNASLLIQNIIQNDTGFYTLHVIKSDLVNEEATGQFRVYPELPKPSISSNNSKPVEDKDAVAFTCEPETQDATYLWWVNNQSLPVSPRLQLSNGNRTLTLFNVTRNDTASYKCETQNPVSARRSDSVILNVLYGPDAPTISPLNTSYRSGENLNLSCHAASNPPAQYSWFVNGTFQQSTQELFIPNITVNNSGSYTCQAHNSDTGLNRTTVTTITVYAEPPKPFITSNNSNPVEDEDAVALTCEPEIQNTTYLWWVNNQSLPVSPRLQLSNDNRTLTLLSVTRNDVGPYECGIQNELSVDHSDPVILNVLYGPDDPTISPSYTYYRPGVNLSLSCHAASNPPAQYSWLIDGNIQQHTQELFISNITEKNSGLYTCQANNSASGHSRTTVKTITVSAELPKPSISSNNSKPVEDKDAVAFTCEPEAQNTTYLWWVNGQSLPVSPRLQLSNGNRTLTLFNVTRNDARAYVCGIQNSVSANRSDPVTLDVLYGPDTPIISPPDSSYLSGANLNLSCHSASNPSPQYSWRINGIPQQHTQVLFIAKITPNNNGTYACFVSNLATGRNNSIVKSITVSASGTSPGLSAGATVGIMIGVLVGVALI | 26.7 ± 2.2 | 25.3 ± 0.33 | 5.67 ± 0.092 | 5.42 ± 0.42 | –
MALGVPISVYLLFNAMTALTEEAAVTVTPPITAQQGNWTVNKTEADNIEGPIALKFSHLCLEDHNSYCINGACAFHHELEKAICRCFTGYTGERCEHLTLTSYAVDSYEKYIAIGIGVGLLLSGFLVIFYCYIRKRCLKLKSPYNVCSGERRPL | – | – | – | – | percentage of EdU-negative (MCF7; [6]): 26.2 ± 0.87%; percentage of EdU-negative (MCF7; [7]): 27 ± 2.6%; percentage of EdU-negative (hTERT-HMEC; [6]): 5.25 ± 0.34%; percentage of EdU-negative (hTERT-HMEC; [7]): 5.12 ± 0.77%
MAILMLSLQLILLLIPSISHEAHKTSLSSWKHDQDWANVSNMTFSNGKLRVKGIYYRNADICSRHRVTSAGLTLQDLQLWCNLRSVARGQIPSTL [Q6UY13] | 26.9 ± 1.6 | 27.81 ± 0.22 | 4.87 ± 0.78 | 5.92 ± 0.39 | –
MARAHWGCCPWLVLLCACAWGHTKPVDLGGQDVRNCSTNPPYLPVTVVNTTMSLTALRQQMQTQNLSAYIIPGTDAHMNEYIGQHDERRAWITGFTGSAGTAVVTMKKAAVWTDSRYWTQAERQMDCNWELHKEVGTTPIVTWLLTEIPAGGRVGFDPFLLSIDTWESYDLALQGSNRQLVSITTNLVDLVWGSERPPVPNQPIYALQEAFTGSTWQEKVSGVRSQMQKHQKVPTAVLLSALEETAWLFNLRASDIPYNPFFYSYTLLTDSSIRLFANKSRFSSETLSYLNSSCTGPMCVQIEDYSQVRDSIQAYSLGDVRIWIGTSYTMYGIYEMIPKEKLVTDTYSPVMMTKAVKNSKEQALLKASHVRDAVAVIRYLVWLEKNVPKGTVDEFSGAEIVDKFRGEEQFSSGPSFETISASGLNAALAHYSPTKELNRKLSSDEMYLLDSGGQYWDGTTDITRTVHWGTPSAFQKEAYTRVLIGNIDLSRLIFPAATSGRMVEAFARRALWDAGLNYGHGTGHGIGNFLCVHEWPVGFQSNNIAMAKGMFTSIEPGYYKDGEFGIRLEDVALVVEAKTKYPGSYLTFEVVSFVPYDRNLIDVSLLSPEHLQYLNRYYQTIREKVGPELQRRQLLEEFEWLQQHTEPLAARAPDTASWASVLVVSTLAILGWSV | 23.2 ± 0.31 | 26.8 ± 0.78 | 5.4 ± 1.8 | 6.21 ± 0.83 | –
MKGILVAGITAVLVAAVESLSCVQCNSWEKSCVNSIASECPSHANTSCISSSASSSLETPVRLYQNMFCSAENCSEETHITAFTVHVSAEEHFHFVSQCCQGKECSNTSDALDPPLKNVSSNAECPACYESNGTSCHGKPWKCYEEEQCVFLVAELKNDIESKSLVLKGCSNVSNATCQFLSGENKTLGGVIFRKFECANVNSLTPTSAPTTSHNVGSKASLYLLALASLLLRGLLP [Q6UX82] | 26.8 ± 1.8 | 24 ± 2.7 | 4.63 ± 0.18 | 5.88 ± 0.78 | –
